From patent US20220251236A1 (Boehringer Ingelheim, published 2022)

Key:
Human CD3 E+G HuFc-6xHis = target: T1, Human CD3 E+G HuFc-6xHis (human); assay: SPR (ProteOn XPR36), HuCD3E_HuCD3G-Fc amine-coupled, bispecific as analyte, Example 4B
T1 construct: also called hu CD3εγ-Fc
Description: (§1) The binding affinity of purified DLL3/CD3 bispecific constructs for recombinant human DLL3-ECD and Fc-fusion protein of human CD3 εγ subunits was determined by Surface Plasmon Resonance (SPR), using a ProteOn XPR36 instrument (Bio-Rad).
For binding kinetic determination to CD3, HuCD3E_HuCD3G-Fc (dissolved in pH 4.5 acetate) was immobilized directly onto the sensor surface through amine coupling for 360 sec at a flowrate of 30 μl/min vertically. The baseline was stabilized by injecting PBS-T-EDTA for 60 sec at a flowrate of 30 μl/min horizontally. The analytes (all anti-DLL3/CD3 molecules) were injected horizontally over the captured antibody for 600 sec at a flowrate of 30 μl/min and a dissociation for 1800 sec.

EGF5+6 = target: T2, EGF5+6; assay: flow cytometry on HEK293 cells expressing the DLL3 subdomain construct, PE anti-human secondary, control: secondary antibody only
T2 construct: also called Hu DLL3 EGF5+6 on HEK293 cells
T2 membrane-anchored DLL3 subdomain construct: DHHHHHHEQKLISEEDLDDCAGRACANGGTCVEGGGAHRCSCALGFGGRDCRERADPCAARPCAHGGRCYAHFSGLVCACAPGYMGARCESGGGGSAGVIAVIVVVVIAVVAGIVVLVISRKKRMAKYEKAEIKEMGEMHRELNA
Description: (§2) DLL3/CD3 binding proteins were produced by transient transfection of CHO-E cells with the pTT5 vectors carrying the chain-encoding genes, as described in Example 2. […] Bound molecules were detected with PE-conjugated anti-human secondary antibody (Sigma-Aldrich, #P8047). As negative control, cells were incubated with secondary antibody only.
(§3) The samples were measured by flow-cytometry. […] The sequences of the epitope domains are listed in Example 5, Table 3.

EGF2+3 = target: T3, EGF2+3; assay: as above
T3 construct: also called Hu DLL3 EGF2+3 on HEK293 cells
T3 membrane-anchored DLL3 subdomain construct: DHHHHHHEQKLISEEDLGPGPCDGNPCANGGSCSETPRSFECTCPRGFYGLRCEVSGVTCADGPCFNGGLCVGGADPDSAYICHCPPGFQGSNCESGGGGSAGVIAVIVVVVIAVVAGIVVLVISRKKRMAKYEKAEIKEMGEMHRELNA
Description: as §2, §3

EGF4+5 = target: T4, EGF4+5; assay: as above
T4 construct: also called Hu DLL3 EGF4+5 on HEK293 cells
T4 membrane-anchored DLL3 subdomain construct: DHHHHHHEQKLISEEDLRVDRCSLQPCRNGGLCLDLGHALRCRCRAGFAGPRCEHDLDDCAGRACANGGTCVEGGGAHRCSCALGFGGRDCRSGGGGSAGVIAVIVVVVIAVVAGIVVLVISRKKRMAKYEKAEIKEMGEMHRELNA
Description: as §2, §3

[1] = target: T5, EGF6+MEMBRANE PROXIMAL PEPTIDE; assay: as above
T5 construct: also called Hu DLL3 EGF6+membrane proximal peptide on HEK293 cells
T5 membrane-anchored DLL3 subdomain construct: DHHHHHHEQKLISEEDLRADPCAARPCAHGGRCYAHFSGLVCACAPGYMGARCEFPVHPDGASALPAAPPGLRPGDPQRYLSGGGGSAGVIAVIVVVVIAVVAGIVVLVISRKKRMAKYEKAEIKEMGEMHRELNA
Description: as §2, §3

EGF3+4 = target: T6, EGF3+4; assay: as above
T6 construct: also called Hu DLL3 EGF3+4 on HEK293 cells
T6 membrane-anchored DLL3 subdomain construct: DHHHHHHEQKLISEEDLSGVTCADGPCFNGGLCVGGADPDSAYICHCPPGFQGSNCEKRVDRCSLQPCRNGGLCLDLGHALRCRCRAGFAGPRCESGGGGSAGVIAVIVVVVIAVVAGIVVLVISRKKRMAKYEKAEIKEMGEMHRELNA
Description: as §2, §3

[2] = target: T7, trypsin inhibitor from glycine max soybean (Glycine max (soybean)); assay: SPR (Biacore T200), trypsin inhibitor on CM5 chip, sample at 1 µM
T7 construct: also called Tryp
Text: To prepare the surface for the non-specific binding experiment, chicken egg white lysozyme and trypsin inhibitor from glycine max soybean were coupled manually to a series S CM5 chip with the surface density of 3000-5000 RU using the amine coupling kit according to the manufacture instructions.

EGF1+2 = target: T8, EGF1+2; assay: flow cytometry on HEK293 cells expressing the DLL3 subdomain construct, PE anti-human secondary, control: secondary antibody only
T8 construct: also called Hu DLL3 EGF1+2 on HEK293 cells
T8 membrane-anchored DLL3 subdomain construct: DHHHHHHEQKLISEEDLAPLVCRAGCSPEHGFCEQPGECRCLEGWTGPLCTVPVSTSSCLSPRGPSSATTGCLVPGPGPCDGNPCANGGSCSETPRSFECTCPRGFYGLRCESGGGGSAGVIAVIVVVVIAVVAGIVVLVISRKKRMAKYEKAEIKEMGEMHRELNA
Description: as §2, §3

Human DLL3-His = target: T9, Human DLL3-His (human, UniProt Q9NYJ7 27-492); assay: SPR (ProteOn XPR36), bispecific captured on protein A/G, hu DLL3 as analyte, Example 4B
T9 construct: also called huDLL3-His; hu DLL3
T9 sequence: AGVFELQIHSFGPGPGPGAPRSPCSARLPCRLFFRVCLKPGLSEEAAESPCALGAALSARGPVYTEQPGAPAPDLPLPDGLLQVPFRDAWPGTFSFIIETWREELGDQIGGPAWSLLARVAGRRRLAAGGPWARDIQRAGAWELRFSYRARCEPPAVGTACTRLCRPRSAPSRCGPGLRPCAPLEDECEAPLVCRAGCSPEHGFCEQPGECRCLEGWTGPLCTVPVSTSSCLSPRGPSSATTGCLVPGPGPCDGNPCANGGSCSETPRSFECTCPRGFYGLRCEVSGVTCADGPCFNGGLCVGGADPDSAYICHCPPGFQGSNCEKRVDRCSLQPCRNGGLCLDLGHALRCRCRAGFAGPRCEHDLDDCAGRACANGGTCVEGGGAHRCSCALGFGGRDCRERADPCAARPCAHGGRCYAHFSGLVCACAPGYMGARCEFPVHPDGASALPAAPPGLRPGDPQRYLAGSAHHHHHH
Description: as §1
For binding kinetic determination to DLL3, anti-DLL3/CD3 molecules were captured individually on the protein A/G surface vertically for 200 sec at a flowrate of 30 μl/min. The baseline was stabilized by injecting PBS-T-EDTA for 60 sec at a flowrate of 30 μl/min horizontally. The analyte (hu DLL3) was injected horizontally over the captured antibody for 300 sec at a flowrate of 30 μl/min and a dissociation for 1800 sec.

T1 sequence (chain, as listed by the source limits assumed): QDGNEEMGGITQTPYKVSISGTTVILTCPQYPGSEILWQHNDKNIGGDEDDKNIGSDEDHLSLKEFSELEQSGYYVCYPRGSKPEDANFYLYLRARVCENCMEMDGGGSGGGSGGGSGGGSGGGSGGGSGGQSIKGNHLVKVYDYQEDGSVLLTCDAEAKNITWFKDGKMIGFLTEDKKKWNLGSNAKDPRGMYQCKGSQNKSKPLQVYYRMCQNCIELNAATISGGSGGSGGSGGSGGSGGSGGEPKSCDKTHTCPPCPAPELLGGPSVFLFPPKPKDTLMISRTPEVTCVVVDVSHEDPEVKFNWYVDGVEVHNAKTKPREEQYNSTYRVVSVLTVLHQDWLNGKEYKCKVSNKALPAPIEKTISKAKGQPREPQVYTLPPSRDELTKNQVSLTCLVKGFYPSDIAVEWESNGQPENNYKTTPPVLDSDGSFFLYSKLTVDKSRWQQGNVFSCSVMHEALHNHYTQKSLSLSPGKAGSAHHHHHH
T7 sequence (P01070 25-205): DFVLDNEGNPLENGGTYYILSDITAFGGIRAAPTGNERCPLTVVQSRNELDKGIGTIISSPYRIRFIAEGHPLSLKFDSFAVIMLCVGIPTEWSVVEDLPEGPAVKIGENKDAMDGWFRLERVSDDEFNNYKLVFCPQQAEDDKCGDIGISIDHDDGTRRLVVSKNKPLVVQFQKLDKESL

B1: DLL3#11/CD3#1 (bispecific antibody, human IgG1, kappa, lambda, L234A L235A)
chain 1: QIVLTQSPAIMSASPGEKVTITCSASSSVTYIHWFQQNPGTSPKLWIYRTSYLASGVPARFSGSGSGTSYSLTISRMEAEDAATYYCQQRSSYPRTFGGGTKLEIKRTVAAPSVFIFPPSDEQLKSGTASVVCLLNNFYPREAKVQWKVDNALQSGNSQESVTEQDSKDSTYSLSSTLTLSKADYEKHKVYACEVTHQGLSSPVTKSFNRGECGGGGSEGKSSGSGSESKSTEGKSSGSGSESKSTGGGGSQVQLQQPGAELVQPGSSVKMSCKASGYAFSDYWITWVKQRPGQGLEWIGDIYPGSGSTKSSEKFKNKATLTADTSSSKAYIQFSSLTPEDSAVYYCVSLYYYGSHYLDTWGQGTTLTVSSASTKGPSVFPLAPSSKSTSGGTAALGCLVKDYFPEPVTVSWNSGALTSGVHTFPAVLQSSGLYSLSSVVTVPSSSLGTQTYICNVNHKPSNTKVDKRVEPKSCDKTHTCPPCPAPEAAGGPSVFLFPPKPKDTLMISRTPEVTCVVVDVSHEDPEVKFNWYVDGVEVHNAKTKPREEQYNSTYRVVSVLTVLHQDWLNGKEYKCKVSNKALPAPIEKTISKAKGQPREPQVYTLPPSREEMTKNQVSLWCLVKGFYPSDIAVEWESNGQPENNYKTTPPVLDSDGSFFLYSKLTVDKSRWQQGNVFSCSVMHEALHNHYTQKSLSLSPG
chain 2: EAVVTQEPSLTVSPGGTVTLTCRSSTGAVTTSNYANWVQEKPGQLPRGLIGGTNKRAPWVPARFSGSLLGGKAALTLSGAQPEDEAEYFCALWYSNLWVFGGGTKLTVLGQPKAAPSVTLFPPSSEELQANKATLVCLISDFYPGAVKVAWKADGSPVNTGVETTTPSKQSNNKYAASSYLSLTPEQWKSHRSYSCQVTHEGSTVEKTVAPAECSGGGGSEGKSSGSGSESKSTEGKSSGSGSESKSTGGGGSEVQLVESGGGLVQPGGSLKLSCAASGFTFNTYAMNWVRQAPGKGLEWVARIRSKYNNYATYYADSVKDRFTISRDDSKNTAYLQMNNLKTEDTAVYYCVRHGNFGNSYVSWFAYWGQGTLVTVSAASTKGPSVFPLAPSSKSTSGGTAALGCLVKDYFPEPVTVSWNSGALTSGVHTFPAVLQSSGLYSLSSVVTVPSSSLGTQTYICNVNHKPSNTKVDKRVEPKSCDKTHTCPPCPAPEAAGGPSVFLFPPKPKDTLMISRTPEVTCVVVDVSHEDPEVKFNWYVDGVEVHNAKTKPREEQYNSTYRVVSVLTVLHQDWLNGKEYKCKVSNKALPAPIEKTISKAKGQPREPQVYTLPPSREEMTKNQVSLSCAVKGFYPSDIAVEWESNGQPENNYKTTPPVLDSDGSFFLVSKLTVDKSRWQQGNVFSCSVMHEALHNRFTQKSLSLSPG
notes: Heterodimer of one DLL3 chain and one CD3 chain (scFab-Fc, knob-in-hole)
Kd (Human CD3 E+G HuFc-6xHis): 2 nM
binding result (EGF5+6): no binding (tested: 1.6 nM)
binding result (EGF2+3): no binding (tested: 1.6 nM)
binding result (EGF4+5): no binding (tested: 1.6 nM)
binding result [1]: no binding (tested: 1.6 nM)
binding result (EGF3+4): no binding (tested: 1.6 nM)
Non-specific binding (RU) [2]: 13 RU

B2: DLL3#14/CD3#1 (bispecific antibody, human IgG1, kappa, lambda, L234A L235A)
chain 1: not shown
chain 2: EAVVTQEPSLTVSPGGTVTLTCRSSTGAVTTSNYANWVQEKPGQLPRGLIGGTNKRAPWVPARFSGSLLGGKAALTLSGAQPEDEAEYFCALWYSNLWVFGGGTKLTVLGQPKAAPSVTLFPPSSEELQANKATLVCLISDFYPGAVKVAWKADGSPVNTGVETTTPSKQSNNKYAASSYLSLTPEQWKSHRSYSCQVTHEGSTVEKTVAPAECSGGGGSEGKSSGSGSESKSTEGKSSGSGSESKSTGGGGSEVQLVESGGGLVQPGGSLKLSCAASGFTFNTYAMNWVRQAPGKGLEWVARIRSKYNNYATYYADSVKDRFTISRDDSKNTAYLQMNNLKTEDTAVYYCVRHGNFGNSYVSWFAYWGQGTLVTVSAASTKGPSVFPLAPSSKSTSGGTAALGCLVKDYFPEPVTVSWNSGALTSGVHTFPAVLQSSGLYSLSSVVTVPSSSLGTQTYICNVNHKPSNTKVDKRVEPKSCDKTHTCPPCPAPEAAGGPSVFLFPPKPKDTLMISRTPEVTCVVVDVSHEDPEVKFNWYVDGVEVHNAKTKPREEQYNSTYRVVSVLTVLHQDWLNGKEYKCKVSNKALPAPIEKTISKAKGQPREPQVYTLPPSREEMTKNQVSLSCAVKGFYPSDIAVEWESNGQPENNYKTTPPVLDSDGSFFLVSKLTVDKSRWQQGNVFSCSVMHEALHNRFTQKSLSLSPG
notes: as for B1
Kd (Human CD3 E+G HuFc-6xHis): 3 nM
binding result (EGF5+6): no binding (tested: 1.6 nM)
binding result (EGF1+2): no binding (tested: 1.6 nM)
binding result (EGF2+3): no binding (tested: 1.6 nM)
binding result (EGF4+5): no binding (tested: 1.6 nM)
binding result [1]: no binding (tested: 1.6 nM)
binding result (EGF3+4): no binding (tested: 1.6 nM)
Non-specific binding (RU) [2]: 6 RU
Kd (Human DLL3-His): 0.06 nM
